B1: LINE1-full (parent)
chain: UACGUAGGUGGUUUUCCCCUGAUAGUGCUAAGGGGGCCUGGAAGUUUGGACUGGGCAGAGCUCAACACAGCGUGGCAAAGUGGCUGUGGCUAGACUGCCUCUCUGGAUUCCUCGUCACUCAGCAGGGCAUCUCUGAGAGAAAUGCC

Variants of: B1
Assay: self-cleavage, relative activity (ratio to wild type); higher = more cleavage; in vitro, sequencing; the parent is a self-cleaving ribozyme

Variant | self-cleavage
G89C U130C | 0.09
A69G C71U | 0.1
U23C G93U | 0.04
U29C G144A | 1.22
U12A A117U | 1.36
C18A U132A | 1.38
A2G A79G | 0.87
G126U A140G | 0.66
U47A U62C | 0.06
U20C A136G | 1.26
U73A U91C | 0.19
A92G G126U | 0.13
U13C G127C | 1.47
G34C A140G | 1.38
U23C U112A | 1.37
U23A U108A | 1.44
G25A C99G | 0.06
A31G A117C | 2.3
U104G U132A | 1.06
A94G C110G | 0.22
U12C C38U | 1.16
C16A U115C | 0.41
G74U U130C | 1.64
G4A U23C | 1.11

Variant | self-cleavage
A22U A121G | 1
C28A G32A | 0.7
U15G G126C | 1.19
G11U A129G | 0.83
U46A A65G | 0.02
U46A U87A | 0.03
G32A A107C | 1.91
A6G A50U | 0.51
U20C U62C | 0.1
U29C A57G | 0.98
C17U U143C | 1.03
G72U U91C | 0.49
U119C A121G | 1.23
A67G G83C | 0.13
U20G U81C | 1.08
U62C G126U | 0.04
A22U U85A | 0.08
U39A A65G | 0.05
A78U A142G | 1.87
A22G A31G | 0.35
A42U U52C | 0.54
A50U A136U | 1.21
A22G A67C | 0.23
A6G U12C | 0.73

Variant | self-cleavage
U104C A117U | 1.73
A2G U115A | 1.08
A22G U47C | 1.18
A43G U134C | 1.09
U1A U73A | 1.67
A43C U45C | 0.51
A94G U108C | 0.61
A6G G127A | 0.46
U5A A77G | 2.07
A31U G82U | 0.74
U109C A124C | 1.41
A57G A64U | 0.3
C18G A65U | 0.28
G36C G55A | 0.13
U12C A65U | 0.21
U104C A136G | 1.62
U47C C120U | 1.72
G32A A138G | 1.16
C84A A140G | 0.13
C120U U134C | 1.27
U9C G49U | 1.08
A43U A50G | 1.29
U13A A129U | 0.81
A117G U130C | 1.42

Variant | self-cleavage
A65U G127U | 0.28
C3A G106A | 0.57
U13C G72U | 1.21
A64G C118U | 0.29
A50G U52A | 0.91
A78C U109C | 2.32
A77G G97C | 0.65
C111U U134C | 2.26
G49U A78G | 0.91
U12G U130C | 1.43
U23A U39A | 1.42
U15A C123G | 0.92
U14G A129U | 0.89
U29G A78G | 0.87
A136C | 1.34
U13G U23C | 0.76
A69G U119C | 0.64
G93A U109A | 0.03
C51U A117G | 1.5
U45C U91C | 0.69
G10A U104A | 0.91
A22G A77U | 0.79
U15C C116U | 0.62
A50U A138U | 1.16

Variant | self-cleavage
U14C A140U | 1.22
G34U A107U | 1.96
A30G U39A | 0.98
A57G U104A | 0.3
G89C A136G | 0.06
A6U A78G | 0.77
U100G A136G | 0.59
U91A U102C | 0.22
U15A U39A | 0.85
G8A G34U | 1.22
G7A A79G | 0.61
A67G U85A | 0.08
U112A A142G | 1.57
U52G U100A | 0.43
U9A A94U | 0.39
A42C | 0.92
U15C A140G | 1.59
U52C A138U | 1.5
U26C A140C | 1.19
A69C U132A | 0.2
A59G A138U | 0.12
A77G G88A | 0.09
G49A U62C | 0.03
A94G U143A | 0.55

Variant | self-cleavage
A30G A140C | 0.93
A124G A129G | 0.96
U96A G122A | 0.06
G34U U96G | 0
U109C A117G | 1.7
U96C U102C | 0.12
G72U A121G | 1.32
U39C A65G | 0.09
G4A G40A | 1.24
U39C C131U | 1
G7A U20A | 0.96
G34U U109C | 1.52
C3U G41A | 2.76
A24C A64U | 0.58
U47A G137U | 1.36
U115C G139U | 1.79
U39A A43U | 1.39
A22G C71U | 0.55
G7A U134C | 1.17
U130C A138G | 1.75
U29C G41A | 1.32
U96C A121C | 0.09
A57U A59U | 0.07
U1A U96G | 0

Variant | self-cleavage
A107U C113A | 1.68
U96A A124U | 0.06
G36C A64C | 0.35
U20C A31G | 1.16
U29C G74A | 1.11
U87A A138G | 0.07
A30C A50G | 1.21
A22G C99U | 0.23
A43U A69U | 0.05
G10A C131U | 1.19
U13A A124G | 0.97
G8A G49A | 1.07
C37G U130G | 0.68
A31G A136U | 1.26
A65G A94U | 0.05
A67G A138G | 0.67
U1C A142G | 0.99
U29A A140G | 1.3
G82A A142G | 2.1
U13A C71A | 0.12
U26A A92G | 0.05
U100A A136G | 1.25
U46C A94C | 0.1

From the RNAGym collection of RNA variant scans (doi:10.7554/elife.90254)
